Measurements reported in publication PMC11758952, “A kinetic model for compound heterozygous pathogenic variants in Tyrosyl-tRNA synthetase gene YARS2-Associated neonatal phenotype” (The Journal of Biological Chemistry, 2024).
Changes are numbered by the printed parent chain. Numbers in names are those of the source.

B1: human mitochondrial tyrosyl-tRNA synthetase (mt-TyrRS), WT/WT unlinked homodimer (enzyme, UniProt Q9Y2Z4 17-477, looked up)
chain: TLNLSVLLPLGLRKAHSGAQGLLAAQKARGLFKDFFPETGTKIELPELFDRGTASFPQTIYCGFDPTADSLHVGHLLALLGLFHLQRAGHNVIALVGGATARLGDPSGRTKEREALETERVRANARALRLGLEALAANHQQLFTDGRSWGSFTVLDNSAWYQKQHLVDFLAAVGGHFRMGTLLSRQSVQLRLKSPEGMSLAEFFYQVLQAYDFYYLFQRYGCRVQLGGSDQLGNIMSGYEFINKLTGEDVFGITVPLITSTTGAKLGKSAGNAVWLNRDKTSPFELYQFFVRQPDDSVERYLKLFTFLPLPEIDHIMQLHVKEPERRGPQKRLAAEVTKLVHGREGLDSAKRCTQALYHSSIDALEVMSDQELKELFKEAPFSEFFLDPGTSVLDTCRKANAIPDGPRGYRMITEGGVSINHQQVTNPESVLIVGQHILKNGLSLLKIGKRNFYIIKWLQL
notes: Construct provided by R. Giege; also called YARS2 enzyme; not shown: His-tag, C-terminal, kept
B2: human mitochondrial tyrosyl-tRNA synthetase F185L, F185L/F185L unlinked homodimer (enzyme, UniProt Q9Y2Z4 17-477, looked up)
chain: B1 chain with F169L
notes: Paternally inherited variant of the patient; also called p.F185L; not shown: His-tag, C-terminal, kept

Target: the molecule itself
Test: native gel or EMSA; native 8% PAGE of the unlinked enzyme (20 ug), 0.75 M Tris pH 8.8, 4 °C, 90 V for 3 h, Western blot (anti-His, anti-mt-TyrRS)

| Protein | binding result |
| --- | --- |
| B1 | binds |
| B2 | binds |
